From the RNAGym collection of RNA variant scans (doi:10.7554/elife.90254)

B1: LINE1-full (parent)
chain: UACGUAGGUGGUUUUCCCCUGAUAGUGCUAAGGGGGCCUGGAAGUUUGGACUGGGCAGAGCUCAACACAGCGUGGCAAAGUGGCUGUGGCUAGACUGCCUCUCUGGAUUCCUCGUCACUCAGCAGGGCAUCUCUGAGAGAAAUGCC

Variants of: B1
Assay: self-cleavage, relative activity (ratio to wild type); higher = more cleavage; in vitro, sequencing; the parent is a self-cleaving ribozyme
UACGUAGGUGGUUUUCCCCUGAUAGUGCUAAGGGGGCCUGGAAGUUUGGACUGGGUAGAGCUCAACACAGCGUGGCAAAGUGGCUGUGGCUGGACUGCCUCUCUGGAUUCCUCGUCACUCAGCAGGGCAUCUCUGAGAGAAAUGCC showed a self-cleavage of 0.06. For UACGUAGGUGGUUUUCCCCUGAUAGUGCUAAGGGGGCCUGGAAGUUUGGACCGGGCAGAGCUCAACACAGCGUGGCAAAGUGGCUGUGGCUAGACUGCCUCUCUGGUUUCCUCGUCACUCAGCAGGGCAUCUCUGAGAGAAAUGCC, the self-cleavage was 1.63. UACGUAGGUGGUUUUCCCCUGAUAGUGCUAAGGGGGCCUGGAAGUUUGGACUGGGCAGAGCUCAACACAGCGUGGCAAAGUGGCUGUGGCUAGACUGCCUCUCUGGAUUCCUCGCCUCUCAGCAGGGCAUCUCUGAGAGAAAUGCC gave a self-cleavage of 1.79. UACGUAGGUGGUUUUCCCCUGAUAGUGCUAAGGGGGCCUGGAAGUUUGGACUGGGCAGAGCACAACACAGCGUGGCAAAGUGGCUGUGGCUAGACUGCCUCUCAGGAUUCCUCGUCACUCAGCAGGGCAUCUCUGAGAGAAAUGCC showed a self-cleavage of 0.04. For UACGUAGGUGGUUUUCCCCUGAUAGUGCUAAGGGGGCCUGGAAGCUUGGACUGGGCAGAGCUCAACACAGCGUGGCAAAGUGGCUGUGGCUAGACUGCCUCUCUAGAUUCCUCGUCACUCAGCAGGGCAUCUCUGAGAGAAAUGCC, the self-cleavage was 1.34. In the case of UACGUAGGUGGUUUUCCCCUGAUAGUGCUAAGGGGGCCUGGAAGUUUGGACUGGGCAGAGCUCAACACAGCGUGGCAAAGUGGCUGUGGCUAGACUGCCUCUCAGGAUUCCCCGUCACUCAGCAGGGCAUCUCUGAGAGAAAUGCC, the self-cleavage is reported as 1.32. UACGUAGGUGGUAUUCCCCUGAUAGUGCUAAGGGGGCCUGGAAGUUUGGACUGUGCAGAGCUCAACACAGCGUGGCAAAGUGGCUGUGGCUAGACUGCCUCUCUGGAUUCCUCGUCACUCAGCAGGGCAUCUCUGAGAGAAAUGCC gave a self-cleavage of 0.51. UACGUAGGUGGUUUUCCCCUGAUAGUGCUAAGGGGGCCUGGAAGUUUGGACUAGGCAGAGCUCAACACAGCGUGGCAAAGUGGCUGUGGCUAGACUGCCUCUCUGGAUUCCUCGUCACUCAGCAGGGCAUCUCUGAGAGAAGUGCC showed a self-cleavage of 1.3. UACGUAGGUGGUUUUCCCCUGAUAGUGCUAAGGGGGCCUGGAAGUUUGGACUGGGCAGAGCCCAACACAGCGUGGCAAAGUGGCUGUGGCUAGACUGCCUCUCUGGAUUCCUCGUCACUCAGCAGGACAUCUCUGAGAGAAAUGCC gave a self-cleavage of 0.06. For UACGUAGGUGGUUUUCCCCUGAUAGUGCUAAGGGGGCCUGGAAGUUUGGACUGGUCAGAGCUCAACACAGCGUGGCAAAGUGGCUGUGGCUAGACCGCCUCUCUGGAUUCCUCGUCACUCAGCAGGGCAUCUCUGAGAGAAAUGCC, the self-cleavage was 0.08. UACGUAGGUGGUUUGCCCCUGAUAGUGCUAAGGGGGCCUGGAAGUUUGGACUGGGCAGAGCUCAACACAGCGUGGCAAAGUGGCUGUGGCUAGACAGCCUCUCUGGAUUCCUCGUCACUCAGCAGGGCAUCUCUGAGAGAAAUGCC showed a self-cleavage of 0.16. UACGUAGGUGGUGUUCCCCUGAUAGUGCUAAGGGGGCCUGGAAGUUUGGACUGGGCAGAGCUCAACACAGCGUGGCAAGGUGGCUGUGGCUAGACUGCCUCUCUGGAUUCCUCGUCACUCAGCAGGGCAUCUCUGAGAGAAAUGCC showed a self-cleavage of 2.7. Work on UACGUAGGUGGUUUUCCCCUGAUAGUGCUAAGGGGGCCUGGAAGUUUGGACUGGGCAGAGCUUAACACAGCGUGGCAAAGUGGCUGUGGCUAGACUGCCUCUCUGGAUUCCUCGUCACUCAGCAGGGCAUCUCUGAGAGAAAAGCC yielded a self-cleavage of 0.44. In the case of UACGUAGGUGGUUUUCCCCUGAUAGUGCUAAGGGGGCCUGGAAGUUUGGACUGGGCAGAGCUCAACACAGCGUGGCAAAGUGGCUGUGGCUAGACUGCCUCUCUGGAUUCCUCGUCACUCAGCAGGGCAUCUCUGUGAGAAGUGCC, the self-cleavage is reported as 1.52. For UACGUAGGUGGUUUUCCCCUGAUUGUGCUAAGAGGGCCUGGAAGUUUGGACUGGGCAGAGCUCAACACAGCGUGGCAAAGUGGCUGUGGCUAGACUGCCUCUCUGGAUUCCUCGUCACUCAGCAGGGCAUCUCUGAGAGAAAUGCC, the self-cleavage was 1.07. Work on UACGCAGGUGGUUUUCCCCUGAUAGUGCUAAGGGGGCCUGGGAGUUUGGACUGGGCAGAGCUCAACACAGCGUGGCAAAGUGGCUGUGGCUAGACUGCCUCUCUGGAUUCCUCGUCACUCAGCAGGGCAUCUCUGAGAGAAAUGCC yielded a self-cleavage of 0.75. Variant UACGUAGGCGGUUUUCCCCUGAUAGUGCUAAGGGGGCCUGGAAGUUUGGACUGGGCAGAGCUCCACACAGCGUGGCAAAGUGGCUGUGGCUAGACUGCCUCUCUGGAUUCCUCGUCACUCAGCAGGGCAUCUCUGAGAGAAAUGCC has a self-cleavage of 0.35. In the case of UACGUAGGUGGUUUUCCCCUGAUAGUGCUAAGGGGGCCUGGAAGUUGGGACUGGGCAGAGCUCAACACAGCGUGGCAAAGUGGCUGUGGCUAGACUGCCUCUCUGGAUCCCUCGUCACUCAGCAGGGCAUCUCUGAGAGAAAUGCC, the self-cleavage is reported as 2.63. Variant UACGUAGGUGGUUUUCCCCUGAUAGUGCUCAGGGGGCCUGGAAGUUUGGACUGGGCAGAGCUCAACACAGCGUGGCAAAGUGGCUGUGGCUAGACUGCCUCUCUGGAUUCCUCGUCACUCAACAGGGCAUCUCUGAGAGAAAUGCC has a self-cleavage of 1.02. Work on UACGUAGGUGGUUUUCCCCUGAUAGUGCUAAGUGGGCCUGGAAGUUUGGACUGGGCAGAGCUCAACACAGCGUGGCAAAGUGGCUGUGGCUAGACUGCCUUUCUGGAUUCCUCGUCACUCAGCAGGGCAUCUCUGAGAGAAAUGCC yielded a self-cleavage of 1.26. With UACGUAGGUGGUUUUCCCCUGAUAGUGCUAAGGGGGCCUGGAAGUUUGGACUGGGCAGAGCUCAACACAGCGUGGCAAAGUGGCUGUGGCUAGACUGCCACUCUGGAUUCCUCGUCACUCAGCAGGGCAUCUCUGAGGGAAAUGCC the self-cleavage was 1.18. Work on UACGUAGGUGGUUUUCCCCUGAUAGUGCUAAGGGGGCCUGGAAGUUUGGCCUGGGCAGAGCUCAACACAGCGUGGCAAAGUGGCAGUGGCUAGACUGCCUCUCUGGAUUCCUCGUCACUCAGCAGGGCAUCUCUGAGAGAAAUGCC yielded a self-cleavage of 0.04. Work on UACGUAGGUGGUUUUCCCCUGAUAGUGCUAAGGGGGCCUGGAAGUUUGGACUGGGCAGAGCUCAACACAGCGUGGCACAGUGGCUGUGGCUAGACUGCCUCUCUGGAUUCCCCGUCACUCAGCAGGGCAUCUCUGAGAGAAAUGCC yielded a self-cleavage of 1.94. Work on UACGUAGGUGGUUUUCCCCUGGUAGUGCUAAGGGGGCCUGGAAGUUUGGACUGGGCAGAGCUCAACACAGCGUGGCAAAGUGGCUAUGGCUAGACUGCCUCUCUGGAUUCCUCGUCACUCAGCAGGGCAUCUCUGAGAGAAAUGCC yielded a self-cleavage of 0.07. Work on UACGUAGGUGGUUUUCCCCUGAUUGUGCAAAGGGGGCCUGGAAGUUUGGACUGGGCAGAGCUCAACACAGCGUGGCAAAGUGGCUGUGGCUAGACUGCCUCUCUGGAUUCCUCGUCACUCAGCAGGGCAUCUCUGAGAGAAAUGCC yielded a self-cleavage of 1.12. In the case of UACGUGGGUGGUUUUCCCCUGAUAGUGCUAAGGGGGCCUGGAAGUUUGGACUGGGCAGAGCUCAACACAGCGUGGCAAAGUGGCUGUGGCUAGACUGCCUCUCUGGGUUCCUCGUCACUCAGCAGGGCAUCUCUGAGAGAAAUGCC, the self-cleavage is reported as 0.74. For UACGAAGGUGGUUUUCCCCUGAUAGUGCAAAGGGGGCCUGGAAGUUUGGACUGGGCAGAGCUCAACACAGCGUGGCAAAGUGGCUGUGGCUAGACUGCCUCUCUGGAUUCCUCGUCACUCAGCAGGGCAUCUCUGAGAGAAAUGCC, the self-cleavage was 1.16. Variant UUCGUAGGUGGUUUUCCCCUGAUAGUGCUAAGGGGGCCUGGAAGUUUGGACUGGGCAGAGCUCAACACAGCGUGGCAAAGUGGCUGUGGCUAGACUGCCUCUCUGGAUCCCUCGUCACUCAGCAGGGCAUCUCUGAGAGAAAUGCC has a self-cleavage of 1.74. Variant UACGUAGGUGGUUUUCCCCUGAUAGUGCUAAAGGGGCCUGGAAGUUUGGACUGGGCAGAGCUCAACACAGCGUGGCAAAGAGGCUGUGGCUAGACUGCCUCUCUGGAUUCCUCGUCACUCAGCAGGGCAUCUCUGAGAGAAAUGCC has a self-cleavage of 1.46. UACGUAGGUGGUUUUCCCCAGAUAGUGCUAAGGGGGCCUGGAAGUUUGGACAGGGCAGAGCUCAACACAGCGUGGCAAAGUGGCUGUGGCUAGACUGCCUCUCUGGAUUCCUCGUCACUCAGCAGGGCAUCUCUGAGAGAAAUGCC gave a self-cleavage of 0.54. For UACGUAGGUGGUUUUCCCCUGAUAGUGCUAAGGGGGCCUGGAAGUUUGGACGGGGCAGAGCUCGACACAGCGUGGCAAAGUGGCUGUGGCUAGACUGCCUCUCUGGAUUCCUCGUCACUCAGCAGGGCAUCUCUGAGAGAAAUGCC, the self-cleavage was 0.32. With UACGUAGGUGGUUUUCCCCUGAUAGUGCAAAGGGGGCCUGGAAGUUUGGACUGGGCAGAGCUCAACACAGCGUGGCAAAGUGGCUGUGGCUAGACUGCCUCUCAGGAUUCCUCGUCACUCAGCAGGGCAUCUCUGAGAGAAAUGCC the self-cleavage was 1.26. UACGUAGGUGGUUUUCCCCUGAUAGUGCUAAGGGGGCCUGGAAGUUUGGACUGGGCAGAGCUCGACACAGCGUGGCAAAGUGGCUGUGGCUAGACUGCCUCUCCGGAUUCCUCGUCACUCAGCAGGGCAUCUCUGAGAGAAAUGCC showed a self-cleavage of 0.59. With UACGUAGGUGGUUUUCCCCUGAUAGUGCUAAGGGGGCCUGGAAGUUUGGACUGGGCAGAGUUCAACACAGCGUGGCAAAGUGGCUGUGGCUAGACUGCCUCUCUGGAUUCCUCUUCACUCAGCAGGGCAUCUCUGAGAGAAAUGCC the self-cleavage was 0.01. Work on UACGUAGGUGGUUUUCCCCUGAUAGUGCUAAGGGGGCCUGGAAGUUUGGACUGGGCAGAGCUCAACACAGCGUGGCAAAGUGGCUGUGGCUAGACUGCCUCUCUGAAUUCCUCGUCACUCAGCGGGGCAUCUCUGAGAGAAAUGCC yielded a self-cleavage of 1.81. Variant UACGUAGGUGGUUUUCCCCUGAUAGUGCUAAGGGGGCCUGGAAGUUUGGACUGGGCAGAGCUCAACACAGCGUGGCAAGGUGGCUGUGGCUAGACUGCCUCUCUGGAUUCCUCGUCACUCAGCAGGGCAUCUCUGAGAGAAUUGCC has a self-cleavage of 2.04. For UACGUAGGUGGUUUUCCCCUGAUAGUGCUAAGGGGGCCUGGAAGUUUGGACUGGGCAGAGCUCCACACAGCGUGGCAAAGUGGCUGCGGCUAGACUGCCUCUCUGGAUUCCUCGUCACUCAGCAGGGCAUCUCUGAGAGAAAUGCC, the self-cleavage was 0.22. Variant UACGUAGGUGGUUUUCCCCUGAUAGUGCUAAGGGGGCCUGGAAGUUUGGACUGGGCAGAGCUCAACACAGCGUGGCAAAGUGGCUGUGGCUAGACUGCCUCUCUGGAUUCCUCGUCACUCAGCAGGGCAUCUCUGAGAGAUAAGCC has a self-cleavage of 0.6. With UACGUAGGUGGUUUACCCCUGAUAGUGCUAAGGGGGCCUGGAAGUUUGGACUGGGCAGAGCUCAACACAGCGUGGCAAAGUGGCUGUGGCUAGACCGCCUCUCUGGAUUCCUCGUCACUCAGCAGGGCAUCUCUGAGAGAAAUGCC the self-cleavage was 0.41.
